According to patent publication US20210388084A1 (JJP BIOLOGICS SP Z O O, published 2021):

B1: chimeric mouse/human anti-human CD89 antibody 8F3 (antibody, human IgG4 S228P, kappa)
heavy: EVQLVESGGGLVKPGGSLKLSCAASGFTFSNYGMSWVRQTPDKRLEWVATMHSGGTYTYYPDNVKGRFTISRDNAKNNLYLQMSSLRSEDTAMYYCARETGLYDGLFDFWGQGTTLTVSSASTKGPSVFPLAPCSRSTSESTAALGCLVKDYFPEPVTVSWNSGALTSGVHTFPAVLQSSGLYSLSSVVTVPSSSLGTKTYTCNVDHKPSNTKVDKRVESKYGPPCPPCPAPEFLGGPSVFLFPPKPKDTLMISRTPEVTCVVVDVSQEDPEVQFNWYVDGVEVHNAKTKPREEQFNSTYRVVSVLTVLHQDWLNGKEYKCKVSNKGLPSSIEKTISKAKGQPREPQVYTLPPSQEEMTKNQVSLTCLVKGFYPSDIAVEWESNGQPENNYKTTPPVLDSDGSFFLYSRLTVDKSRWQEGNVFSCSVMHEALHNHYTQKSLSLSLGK
light: DVQITQSPSYLAASPGETITINCRASKTISKYLAWYQEKPGKTNMLLIYSGSTLQSGVPSRFSGSGSGTDFTLTISSLEPEDLAMYYCQQHDEYPWTFGGGTKLEIKRTVAAPSVFIFPPSDEQLKSGTASVVCLLNNFYPREAKVQWKVDNALQSGNSQESVTEQDSKDSTYSLSSTLTLSKADYEKHKVYACEVTHQGLSSPVTKSFNRGEC
notes: mouse V regions on stabilized (S239P) human IgG4/kappa; also called chimeric 8F3; copies: 2 + 2
B2: chimeric mouse/human anti-human CD89 antibody 16D6 (antibody, human IgG4 S228P, kappa)
heavy: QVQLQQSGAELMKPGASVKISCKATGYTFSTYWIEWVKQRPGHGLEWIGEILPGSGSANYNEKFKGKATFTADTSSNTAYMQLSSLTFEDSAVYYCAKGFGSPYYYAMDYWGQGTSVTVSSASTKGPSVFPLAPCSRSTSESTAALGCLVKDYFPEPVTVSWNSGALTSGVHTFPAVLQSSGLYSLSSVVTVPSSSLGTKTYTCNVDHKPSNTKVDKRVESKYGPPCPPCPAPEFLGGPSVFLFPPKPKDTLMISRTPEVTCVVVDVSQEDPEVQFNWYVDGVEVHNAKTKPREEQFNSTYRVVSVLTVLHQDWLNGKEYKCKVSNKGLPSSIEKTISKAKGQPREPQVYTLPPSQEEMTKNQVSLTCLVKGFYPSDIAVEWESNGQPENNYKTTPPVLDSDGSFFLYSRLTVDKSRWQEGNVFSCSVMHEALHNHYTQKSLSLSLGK
light: EIVLTQSPALMAASPGEKVTITCSVSSSISSSNLHWYQQKSETSPKPWIYGTSKLASGVPVRFSGSGSGTSYSLTISNMEAEDAATYYCQQWSSFPLTFGGGTKLEIKRTVAAPSVFIFPPSDEQLKSGTASVVCLLNNFYPREAKVQWKVDNALQSGNSQESVTEQDSKDSTYSLSSTLTLSKADYEKHKVYACEVTHQGLSSPVTKSFNRGEC
notes: mouse V regions on stabilized (S239P) human IgG4/kappa; also called chimeric 16D6; 16D16; copies: 2 + 2
B3: chimeric mouse/human anti-human CD89 antibody 10E7 (antibody, human IgG4 S228P, kappa)
heavy: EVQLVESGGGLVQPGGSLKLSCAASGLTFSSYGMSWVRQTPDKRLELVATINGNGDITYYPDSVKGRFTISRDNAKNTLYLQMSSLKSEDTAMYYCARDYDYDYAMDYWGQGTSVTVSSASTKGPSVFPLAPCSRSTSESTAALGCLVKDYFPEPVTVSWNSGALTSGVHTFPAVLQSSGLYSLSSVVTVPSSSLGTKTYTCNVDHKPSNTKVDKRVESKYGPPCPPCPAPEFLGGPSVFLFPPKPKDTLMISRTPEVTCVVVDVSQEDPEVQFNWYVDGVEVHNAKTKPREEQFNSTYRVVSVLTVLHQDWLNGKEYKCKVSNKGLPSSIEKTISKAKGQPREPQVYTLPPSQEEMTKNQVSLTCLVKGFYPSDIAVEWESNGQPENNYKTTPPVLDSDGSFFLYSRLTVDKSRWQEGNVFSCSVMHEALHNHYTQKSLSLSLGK
light: DIQMTQSTSSLSASLGDSVTISCRASQDIINYLNWYQQKPDGTVKLLIYYTSRLHSGVPSRFSGSGSGTEYSLTVSNLEKEDIATYFCQQGKTLPYTFGGGTKLEIKRTVAAPSVFIFPPSDEQLKSGTASVVCLLNNFYPREAKVQWKVDNALQSGNSQESVTEQDSKDSTYSLSSTLTLSKADYEKHKVYACEVTHQGLSSPVTKSFNRGEC
notes: mouse V regions on stabilized (S239P) human IgG4/kappa; also called chimeric 10E7; copies: 2 + 2
B4: chimeric mouse/human anti-human CD89 antibody 20B4 (antibody, human IgG4 S228P, kappa)
heavy: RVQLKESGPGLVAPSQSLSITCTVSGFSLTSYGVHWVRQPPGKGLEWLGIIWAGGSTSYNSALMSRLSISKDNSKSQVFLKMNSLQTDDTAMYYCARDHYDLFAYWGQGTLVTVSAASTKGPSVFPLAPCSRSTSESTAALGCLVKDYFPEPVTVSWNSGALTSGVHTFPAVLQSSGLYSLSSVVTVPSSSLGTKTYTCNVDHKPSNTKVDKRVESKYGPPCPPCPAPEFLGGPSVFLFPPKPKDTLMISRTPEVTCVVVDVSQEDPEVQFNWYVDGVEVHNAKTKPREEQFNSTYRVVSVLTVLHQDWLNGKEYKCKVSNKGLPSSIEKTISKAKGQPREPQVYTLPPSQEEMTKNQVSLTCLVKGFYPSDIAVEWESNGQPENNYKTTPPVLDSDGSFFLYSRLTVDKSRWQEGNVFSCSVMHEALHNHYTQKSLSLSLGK
light: DILMTQSPSSMSVSLGDTVSITCHASQDISRNIGWLQQKPGKSFKGLIYHGTNLEDGVPSRFSGSGSGADYSLTISSLESEDFADYYCVQYAQFPRTFGGGTKLEIKRTVAAPSVFIFPPSDEQLKSGTASVVCLLNNFYPREAKVQWKVDNALQSGNSQESVTEQDSKDSTYSLSSTLTLSKADYEKHKVYACEVTHQGLSSPVTKSFNRGEC
notes: mouse V regions on stabilized (S239P) human IgG4/kappa; also called chimeric 20B4; copies: 2 + 2

Tests used:
[1] = molecular target: T1, membrane-bound full-length human CD89 (human, UniProt P24071 22-287); assay: FACS, HEK293F-huCD89, half-maximum binding
T1 construct: on stably or transiently transfected HEK293F cells; also called FcalphaRI; huCD89
Description: Then, 10 μL/tube (ie, 0.1×10⁶ cells) of these cells were incubated with or without 100 μL titrated (in PBS/BSA/NaN₃) purified chimeric mouse/human anti-human CD89 antibody/tube for 30 minutes at 4° C. […] After extensive washing in PBS/BSA/NaN₃, cells were subsequently incubated with 1:200 diluted PE-conjugated goat anti-human IgG Fey-specific antibodies (Jackson ImmunoResearch) for 30 minutes at 4° C. After extensive washing in PBS/BSA/NaN₃, cells were fixed in 2% formaldehyde in PBS/BSA/NaN₃ for 30 minutes at 4° C.

[2] = molecular target: T2, recombinant C-terminal polyhistidine-tagged human (extracellular) CD89 (human, UniProt P24071 22-227); assay: ELISA, coated rhuCD89, half-maximum binding
T2 construct: extracellular domain; bought (Sino Biological); also called rhuCD89
Description: After extensive washing with PBS/0.05% Tween 20, plates were blocked with PBS/0.05% Tween 20/1% BSA (Roche) for 1 hour at RT. Subsequently, plates were incubated with 50 μL titrated (in block buffer) purified mouse anti-human CD89 antibody/well for 1 hour at RT. […] After extensive washing in PBS/0.05% Tween 20, binding of antibodies on rhuCD89 was determined with 1:5,000 diluted horseradish peroxidase (HRP)-conjugated goat anti-mouse IgG Fey-specific antibodies (Jackson ImmunoResearch) for 1 hour at RT, followed by a ready-to-use solution of TMB substrate (Invitrogen) for colorimetric detection.
After extensive washing with PBS/0.05% Tween 20, plates were blocked with PBS/0.05% Tween 20/1% BSA (Roche) for 1 hour at RT. Subsequently, plates were incubated with and without 50 μL titrated (in block buffer) purified chimeric mouse/human anti-human CD89 antibody/well for 1 hour at RT. After extensive washing in PBS/0.05% Tween 20, binding of antibodies on rhuCD89 was determined with 1:5,000 diluted horseradish peroxidase (HRP)-conjugated goat anti-human IgG Fey-specific antibodies (Jackson ImmunoResearch) for 1 hour at RT, followed by a ready-to-use solution of TMB substrate (Invitrogen) for colorimetric detection.

Row | Binder | EC50 [1] [µg/mL] | EC50 [2] [µg/mL]
1 | B1 | 1.32 | 0.031
2 | B2 | 1.79 | 0.108
3 | B3 | 1.25 | 0.016
4 | B4 | 0.296 | 0.009
